Biological target: MCM helicase hexamer (Mcm2-7) (yeast) (UniProt P29469)
Assay: negative-stain EM

“ORC variant lacking the N-terminal 119 amino acids of Orc6, P54784;P32833;P54790;P54791;P50874;P38826” showed a decrease of MO formation against wild type ORC of 50%.
